This note sets out measurements from the Human Domainome abundance scans (Beltran et al. 2025).

± gives the uncertainty stated by the source.

B1: F-BAR and double SH3 domains protein 1, residues 467 to 528; numbered along this chain, Q86WN1 (parent)
chain: RALPCPAHVVFRYQAGREDELTITEGEWLEVIEEGDADEWVKARNQHGEVGFVPERYLNFPD

This data set covers variants of B1. Briefly: abundance fitness (aPCA) (normalised: wild type 0, dead -1); higher = more abundant; growth selection in yeast, the domain comes from the species named. The note with it: Homo sapiens.
Consider A43D, for which the abundance fitness is -0.793 ± 0.22.

For the variant A43Q, the abundance fitness is -0.839 ± 0.16. The same measure for A43N: -0.763 ± 0.21; for A43V: -0.056 ± 0.058; for V50D: -0.599 ± 0.25. Consider V50I, for which the abundance fitness is -0.235 ± 0.12. Take V50E: the abundance fitness is 0.016 ± 0.066. The same measure for V50N: -0.737 ± 0.25; for V50R: -0.607 ± 0.071.

Take V50M: the abundance fitness was -0.108 ± 0.07. Next, V50L: -0.285 ± 0.052; V50S: -0.148 ± 0.068; V50P: -0.833 ± 0.14. Next, F52Y: 0.093 ± 0.085; F52D: -0.431 ± 0.1; A15R: -0.178 ± 0.043. With A15K, the abundance fitness is -0.125 ± 0.092. Next, A15F: -0.956 ± 0.37; A15Q: -0.27 ± 0.062.

Turning to A15P, the abundance fitness is -0.374 ± 0.078.

In the case of A15G, the abundance fitness is -0.088 ± 0.05. Consider E39W, for which the abundance fitness was -0.227 ± 0.069. Regarding E39K, the abundance fitness was 0.013 ± 0.072. With E39Q, the abundance fitness was -0.027 ± 0.078. Next, E39V: -0.184 ± 0.054; E39P: -0.207 ± 0.067. Next, E39N: 0.227 ± 0.092; E39L: -0.146 ± 0.043.

Take E39S: the abundance fitness turned out to be 0.028 ± 0.051. In the case of F11K, the abundance fitness turned out to be 0.017 ± 0.065. Next, F11G: 0.095 ± 0.041. Take F11W: the abundance fitness was -0.075 ± 0.049. Regarding F11H, the abundance fitness turned out to be 0.043 ± 0.095.

In the case of F11E, the abundance fitness came out at 0.109 ± 0.091. Next, E18L: -0.23 ± 0.044; E18M: -0.245 ± 0.087; E18R: -0.134 ± 0.039. Next, E18G: -0.072 ± 0.047; E18K: -0.238 ± 0.086; E18I: -0.389 ± 0.16. Regarding P6V, the abundance fitness was -0.243 ± 0.049. For P6Q, the abundance fitness was -0.222 ± 0.072. The same measure for P6S: -0.344 ± 0.071; for P6G: -0.209 ± 0.052; for K42M: -0.176 ± 0.057. The same measure for K42P: -0.974 ± 0.15. Next, K42L: -0.166 ± 0.044; K42Y: -0.381 ± 0.15. With K42N, the abundance fitness is -0.575 ± 0.23.

Turning to K42Q, the abundance fitness was -0.129 ± 0.074.

On to W40T, for which the abundance fitness was -0.101 ± 0.06. Next, W40C: -0.181 ± 0.061. The same measure for W40Q: -0.122 ± 0.066. On to I32V, for which the abundance fitness was -0.07 ± 0.041. Next, I32E: -0.487 ± 0.078; I32F: 0.018 ± 0.063; I32Q: -0.307 ± 0.091.

Turning to I32Y, the abundance fitness is -0.063 ± 0.088.

Consider E49A, for which the abundance fitness was -0.131 ± 0.093. The same measure for E49Y: -0.427 ± 0.14; for E49V: -0.139 ± 0.066; for E49C: -0.029 ± 0.095. The same measure for E49H: -0.015 ± 0.12; for G26V: -0.942 ± 0.15. G26T: the abundance fitness is -0.871 ± 0.2.

As for L21V, the abundance fitness is -0.456 ± 0.098. As to L21N, the abundance fitness was -0.925 ± 0.26. The same measure for L21T: -1.21 ± 0.47. Next, L21F: -0.588 ± 0.16; L21G: -0.87 ± 0.13; G16I: -0.118 ± 0.093. As for G16E, the abundance fitness was found to be 0.165 ± 0.12. Next, G16D: -0.233 ± 0.12; G16M: 0.026 ± 0.071; G16N: 0.113 ± 0.13. Next, G16H: -0.027 ± 0.091.

Regarding G16W, the abundance fitness is -0.245 ± 0.067. Next, V31N: -0.947 ± 0.23; V31S: -0.683 ± 0.091.

As to V31L, the abundance fitness was -0.454 ± 0.057. Next, V31G: -0.888 ± 0.087. Next, V31A: -0.465 ± 0.075; V31K: -0.797 ± 0.14; D62Q: -0.276 ± 0.17. The same measure for D62W: -0.356 ± 0.084; for D62H: 0.011 ± 0.13; for D62I: -0.435 ± 0.12. Consider D62C, for which the abundance fitness was determined as 0.111 ± 0.14.

D62N: the abundance fitness was -0.201 ± 0.074. Consider R1E, for which the abundance fitness is -0.431 ± 0.1. Next, R1M: -0.548 ± 0.24; R1F: 0.053 ± 0.099; R1Y: -0.105 ± 0.081.

Regarding R1N, the abundance fitness turned out to be 0.002 ± 0.099. Consider R1C, for which the abundance fitness is -0.544 ± 0.091. Next, R12F: -0.01 ± 0.07; R12V: -0.367 ± 0.061; R12N: 0.033 ± 0.078. Next, R12W: -0.455 ± 0.096; T22V: -0.898 ± 0.1; T22K: -0.686 ± 0.13. Next, T22Q: -0.581 ± 0.12. With T22P, the abundance fitness is -0.704 ± 0.1. Next, T22F: -0.742 ± 0.12.

As to V41S, the abundance fitness is -0.73 ± 0.11. Next, V41H: -0.929 ± 0.23. The same measure for V41L: -0.199 ± 0.048.

For the variant V41D, the abundance fitness was -0.815 ± 0.25. Next, V41K: -0.411 ± 0.13; N45T: -0.402 ± 0.11; N45L: -0.737 ± 0.086. Next, V9M: -1.01 ± 0.2; V9L: -0.835 ± 0.075; V9D: -0.764 ± 0.27. In the case of V9Y, the abundance fitness is -0.631 ± 0.15. The same measure for V9R: -0.788 ± 0.081; for V9Q: -0.607 ± 0.13. Regarding V9H, the abundance fitness is -0.85 ± 0.22. Next, V9T: -0.531 ± 0.1; L3K: -0.276 ± 0.1.

As for L3S, the abundance fitness was -0.193 ± 0.057. Next, L3I: -0.058 ± 0.093. The same measure for L3M: -0.121 ± 0.085; for L3G: -0.609 ± 0.058.

Turning to L3Q, the abundance fitness is -0.362 ± 0.17.

L3N: the abundance fitness was -0.127 ± 0.082.

Consider A2C, for which the abundance fitness was 0.031 ± 0.061. The same measure for A2H: -0.256 ± 0.13; for A2R: 0.053 ± 0.039.

With A2G, the abundance fitness was 0.133 ± 0.043. Next, A2E: 0.196 ± 0.083; G51Q: -1.03 ± 0.24; G51H: -0.973 ± 0.38.

Consider G51C, for which the abundance fitness was -0.958 ± 0.15. Next, D19Q: 0.034 ± 0.079; D19Y: -0.04 ± 0.076.

In the case of L58V, the abundance fitness is -0.267 ± 0.062. With L58E, the abundance fitness was -0.951 ± 0.18. The same measure for L58P: -0.946 ± 0.18; for L58A: -0.743 ± 0.085; for L58N: -1.02 ± 0.46. Next, L58Q: -0.819 ± 0.14; N59E: 0.028 ± 0.06. Next, N59I: -0.079 ± 0.075; N59W: -0.242 ± 0.053. Take N59C: the abundance fitness is -0.036 ± 0.093.

N59L: the abundance fitness is -0.159 ± 0.035. The same measure for P54T: -0.831 ± 0.11. The same measure for P54M: -0.009 ± 0.053; for P54A: -0.2 ± 0.073; for P54R: 0.012 ± 0.042. The same measure for P54E: -0.509 ± 0.11; for P54L: -0.016 ± 0.04.

Consider P54H, for which the abundance fitness was -0.017 ± 0.077.

Regarding P54K, the abundance fitness is -0.075 ± 0.1.

E55M: the abundance fitness is 0.035 ± 0.049. Consider E55H, for which the abundance fitness was -0.133 ± 0.1. Next, E55C: -0.02 ± 0.061; E55S: -0.069 ± 0.05.

Turning to E55N, the abundance fitness is -0.055 ± 0.091. Next, E55Y: -0.196 ± 0.081. The same measure for P4R: -0.505 ± 0.076; for P4M: -0.247 ± 0.11. Next, P4H: -0.472 ± 0.13; E34W: -0.074 ± 0.063; E34H: -0.071 ± 0.12. Regarding E34G, the abundance fitness is -0.17 ± 0.064.
